Experimental data: patent US20140127200A1

Molecular target: HER2 expressed on the surface of breast carcinoma cells (BT-474; SK-BR-3) (human) (UniProt P04626)
Test: cell-based or functional assay

## HER-con4(H) (…® with the 2xcon4 MRD fused to the heavy chain) (bispecific antibody)
  ADCC on SK-BR-3 cells with human PBMCs (specific release), IC50: 0.067 nM
